Reference: the RNAGym collection of RNA variant scans (doi:10.1093/nar/gkz1192)

B1: CPEB3 Ribozyme (parent)
chain: UAACAGGGGGCCACAGCAGAAGCGUUCACGUCGCAGCCCCUGUCAGAUUCUGGUGAAUCUGCGAAUUCUGCUGUAUAUCUC

Variants of: B1
Experiment: self-cleavage, relative activity (ratio to wild type); higher = more cleavage; in vitro, sequencing
Method in brief: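 CPEB3 self-cleaving ribozyme mutant libraries were made by rounds of error-prone PCR, barcoded, and transcribed in vitro with T7 RNA polymerase for 5 hours at 37°C. Cleavage occurred during transcription and a 15 min DNase I step before EDTA stop. RNAs were reverse transcribed with template switching and Illumina-sequenced, with DNA sequencing mapping barcodes to variants. Relative activity is the variant's cleaved/total read fraction divided by wild type's (minimum 5 reads), averaged across three batches.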

Going from UAACAGGGGGCCACAGCAGAAGCUUUCACGUCGCAGCCCCUGUCAGAUUCUGGUGAAUCAGCGAAUUCUGCUGUAUAUCUC [G24U U60A] to UAACAGGGGGCCACAGCAGAAGCUUUCACGUCGCAGCUCCUGUCAGAUUCUGGUGAAUCUGCGAAUUCUGCUGUAUAUCUC [G24U C38U], the self-cleavage falls from 0.16 to 0.1.

First: UAACAGGGGGCCACAGCAGAAGCUUUCACGUCGCAGCCCCUGUCAGAUUCUGGUGAAUCUGCGAAUUCUGCUGUGUAUCUC [G24U A75G]
Second: UAACAGGGGGCCACAGCAGAAGCGAUCACGUCGCAGCCCCUGUCAGAUUCUGGUGAAUCUGCGAAUUCUGCUGUAUAUCUC [U25A]
The self-cleavage of the first is lower: 0.08 for the first, 0.3 for the second.

Going from UAACAGGGGGCCACAGCAGAAGCUUUCACGUCGCAGCCCCUGUCAGAUUCUGGUGAAUCUGCGGAUUCUGCUGUAUAUCUC [G24U A64G] to UAACAGGGGGCCACAGCAGAAGCUUUCACGUCGCAGCCCCUGUCAGAUUCUGGUGAAUCUGCGUAUUCUGCUGUAUAUCUC [G24U A64U], the self-cleavage rises from 0.18 to 0.3.

Compared with UAACAGGGGGCCACAGCAGAAGCUAUCACGUCGCAGCCCCUGUCAGAUUCUGGUGAAUCUGCGAAUUCUGCUGUAUAUCUC [G24U U25A], UAACAGGGGGCCACAGCAGAAGCUUUCACGUCGCAGCCCCUGUCAGACUCUGGUGAAUCUGCGAAUUCUGCUGUAUAUCUC [G24U U48C] is lower in self-cleavage: 0.3 for the first, 0.12 for the second.

Compared with UAACAGGGGGCCACAGCAGAAGCUUUCACGCCGCAGCCCCUGUCAGAUUCUGGUGAAUCUGCGAAUUCUGCUGUAUAUCUC [G24U U31C], UAACAGGGGGCCACAGCAGAAGCUUUCACGUCGCAGCCCCUGUCAGAUUCUGGUGAAUCUGCGAAUACUGCUGUAUAUCUC [G24U U67A] is lower in self-cleavage: 0.37 for the first, 0.16 for the second.

Going from UAACAGGGGGCCACAGCAGAAGCUUUCACGUCGCAGCCCCUGUCAGAUUCUGGUGAAUCUGCGAAUCCUGCUGUAUAUCUC [G24U U67C] to UAACAGGGGGCCACAGCAGAAGCUUUCACGUCGCAGCCCCUGUCAGAUUCUGGUGAAUCUGCGAAUUCUGCUGUAAAUCUC [G24U U76A], the self-cleavage rises from 0.1 to 0.4.

Going from UAACAGGGGGCCACAGCAGAAGCUUUCACGUCGCAGCCCCUGUCAGAUUCUGGUGAAUCUGCGAAUUCUGCUGUAUAUCAC [G24U U80A] to UAACAGGGGGCCACAGCAGAAGCUUUCACGUCGCAGCCCCUGUCAGAUUCUGGUGAAUCUGCGAAUUCUGCUGUAUAUCCC [G24U U80C], the self-cleavage rises from 0.22 to 0.41.

First: UAACAGGGGGCCACAGCAGAAGCUUUCACGUCGCAGCCCCUGUCAGGUUCUGGUGAAUCUGCGAAUUCUGCUGUAUAUCUC [G24U A47G]
Second: UAACAGGGGGCCACAGCAGAAGCUUUCACGUCGCAGCCCCUGUAAGAUUCUGGUGAAUCUGCGAAUUCUGCUGUAUAUCUC [G24U C44A]
The self-cleavage of the first is higher: 0.31 for the first, 0.18 for the second.

First: UAACAGGGGGCCACAGCAGAAGCUUCCACGUCGCAGCCCCUGUCAGAUUCUGGUGAAUCUGCGAAUUCUGCUGUAUAUCUC [G24U U26C]
Second: UAACAGGGGGCCACAGCAGAAGCUUUCACGUCGCAGCCCCUGUCAGAUUCUGGCGAAUCUGCGAAUUCUGCUGUAUAUCUC [G24U U54C]
The self-cleavage of the first is lower: 0.11 for the first, 0.17 for the second.

Compared with UAACAGGGGGCCACAGCAGAAGCUUUCACGUCGCAGCCCCAGUCAGAUUCUGGUGAAUCUGCGAAUUCUGCUGUAUAUCUC [G24U U41A], UAACAGGGGGCCACAGCAGAAGCUUUCACGUCGCAGCCCCUGUCAGAUUCUGGUGAACCUGCGAAUUCUGCUGUAUAUCUC [G24U U58C] is lower in self-cleavage: 0.23 for the first, 0.17 for the second.

Going from UAACAGGGGGCCACAGCAGAAGCGAUCGCGUCGCAGCCCCUGUCAGAUUCUGGUGAAUCUGCGAAUUCUGCUGUAUAUCUC [U25A A28G] to UAACAGGGGGCCACAGCAGAAGCGAUCUCGUCGCAGCCCCUGUCAGAUUCUGGUGAAUCUGCGAAUUCUGCUGUAUAUCUC [U25A A28U], the self-cleavage rises from 0.28 to 0.52.

Compared with UAACAGGGGGCCACAGCAGAAGCGAUCCCGUCGCAGCCCCUGUCAGAUUCUGGUGAAUCUGCGAAUUCUGCUGUAUAUCUC [U25A A28C], UAACAGGGGGCCACAGCAGAAGCUUUCACGUCGCAGCCCCUGUCAGAUACUGGUGAAUCUGCGAAUUCUGCUGUAUAUCUC [G24U U49A] is lower in self-cleavage: 0.39 for the first, 0.23 for the second.

Compared with UAACAGGGGGCCACAGCAGAAGCUUUCACGUCGCAGCCCCUGUCAGAUUCUGGUGAAUCUGCGAAUUCUGCAGUAUAUCUC [G24U U72A], UAACAGGGGGCCACAGCAGAAGCUUUCACGUCGCAGCCCCUGUCAGAUUCUGGUGAAUCUGCGAAUUCUGCCGUAUAUCUC [G24U U72C] is higher in self-cleavage: 0.11 for the first, 0.52 for the second.

Compared with UAACAGGGGGCCACAGCAGAAGCUUUCACGUCGCAGCCCCUGUCAGAUUCUGGUGAAUCUGCGAAUUCUGCUGUAUUUCUC [G24U A77U], UAACAGGGGGCCACAGCAGAAGCGAUCACGUCGCGGCCCCUGUCAGAUUCUGGUGAAUCUGCGAAUUCUGCUGUAUAUCUC [U25A A35G] is higher in self-cleavage: 0.15 for the first, 0.31 for the second.

Compared with UAACAGGGGGCCACAGCAGAAGCGAUCACGUCGCCGCCCCUGUCAGAUUCUGGUGAAUCUGCGAAUUCUGCUGUAUAUCUC [U25A A35C], UAACAGGGGGCCACAGCAGAAGCGAUCACGUCGCUGCCCCUGUCAGAUUCUGGUGAAUCUGCGAAUUCUGCUGUAUAUCUC [U25A A35U] is higher in self-cleavage: 0.2 for the first, 0.29 for the second.

First: UAACAGGGGGCCACAGCAGAAGCGAUCACGUCGCAGCCCCUGUCGGAUUCUGGUGAAUCUGCGAAUUCUGCUGUAUAUCUC [U25A A45G]
Second: UAACAGGGGGCCACAGCAGAAGCGAUCACGUCGCAGCCCCUGUCCGAUUCUGGUGAAUCUGCGAAUUCUGCUGUAUAUCUC [U25A A45C]
The self-cleavage of the first is lower: 0.27 for the first, 0.6 for the second.

Going from UAACAGGGGGCCACAGCAGAAGCUUUCACGUCGCAGCCCCUGUCAGAUUCAGGUGAAUCUGCGAAUUCUGCUGUAUAUCUC [G24U U51A] to UAACAGGGGGCCACAGCAGAAGCUUUCACGUCGCAGCCCCUGUCAGAUUCCGGUGAAUCUGCGAAUUCUGCUGUAUAUCUC [G24U U51C], the self-cleavage rises from 0.1 to 0.2.
